Measurements as given in the DeepSol protein solubility set.

experiment: soluble on expression in E. coli; label from the status in PepcDB or PDB records

Sequence	soluble on expression in E. coli
LPTGIIIAATPLGNIGDASPRLVHALANATVVAAEDTRRTASLAAALGVEIKGQLVSNFDHNEQARVGKLIEAARTGTVLVVSDAGMPVVSDPGFALIDAAHDANIPVTCFPGPS	not soluble
MSLGNTTVVTTTVRNATPSLTLDAGTIERFLAHSHRRRYPTRTDVFRPGDPAGTLYYVISGSVSIIAEEDDDRELVLGYFGSGEFVGEMGLFIESDTREVILRTRTQCELAEISYERLQQLFQTSLSPDAPRILYAIGVQLSKRLLDTTRKASRLAFLDVTDRIVRTLHDLSKEPEAMSHPQGTQLRVSRQELARLVGCSREMAGRVLKKLQADGLLHARGKTVVLYGTR	soluble
SNAGAPLKAVSAFAPPMKTQDFNLYTNEVHAKFDDYDLGMEYARQHNKPVMLDFTGYGCVNCRKMELAVWTDPKVSSIINNDYVLITLYVDNKTPLTEPVKIMENGTERTLRTVGDKWSYLQRVKFGANAQPFYVLIDNEGNPLNKSYAYDEDISKYINFLQTGLENYRKEK	soluble
MYMRAGDGRVHGIYSSTDVANLILKTTGTALMDKKKLHKLLYYMQGWTLAALGRPAFANDLQAWVDGPVSVGMRRDTHYATCFEVANRPLSNPLAPQDRDLLALMYLIAPFYAQQQTQALVDSTHAEAPWLDARGGLPPPMPIPARRSLTTHCTATFHSTPASWV	not soluble
MPAYHSKFDTELKVLPLGNTNMGKLPIRTNFKGPAPQTNQDDIIDEALTYFKPNIFFREFEIKGPADRTMIYLIFYITECLRKLQKSPNKIAGQKDLHALALSHLLPIPGENGFPLNSMYKAPQSKPDEDEMRAYLQQIRQEIGARLCDLAFPDPQDRPSKWWLCFARRRFMDKGLVGQGVNL	soluble
MGSDKIHHHHHHMKQGIEFIKFNPTQNMTILVETNDPIGEYKHIAEKIMSYDSVYAEQVGFIEKPLNRQAAAHLEMAGGEFCGNACMALAALIASEKGLRPTELMEIVLEVSGTDNLVMCQVERTLDEFHCQVTMPLPKQIEQKIVKYDGSEMNLIIVRYQEFIHIVIEVDDFNKIVREKAQSLAKLLGVTLGTNLIGILLYKSNTSELAPLIFVPDLDSMIWERGCGSGTASLGAYLAWKNKKEIVAKIKQPGGTIQVIATCEEEKLTSLKIEGSVSIVARGKAFIDV	not soluble
MGGSHHHHHHGMASGKSDFLTPKAIANRIKSKGLQKLRWYCQMCQKQCRDENGFKCHCMSESHQRQLLLASENPQQFMDYFSEEFRNDFLELLRRRFGTKRVHNNIVYNEYISHREHIHMNATQWETLTDFTKWLGREGLCKVDETPKGWYIQYIDRDPETIRRQLELEKKKKQDLDDEEKTAKFIEEQVRRGLEGKEQEVPTFTELSRENDEEKVTFNLSKGACSSSGATSSKSSTLGPSALKTIGSSASVKRKESSQSSTQSKEKKKKKSALDEIMEIEEEKKRTARTDYWLQPEIIVKIITKKLGEKYHKKKAIVKEVIDKYTAVVKMIDSGDKLKLDQTHLETVIPAPGKRILVLNGGYRGNEGTLESINEKTFSATIVIETGPLKGRRVEGIQYEDISKLA	not soluble
MGSDKIHHHHHHMALKDYAIEKEKVKKFLQEFYYENELGKKQFKYGTQLVHLAHREQVALYVDLDDIAEDDPELVDSICENAKRYSRLFGDVVQELLPEYKEKEVVNKDVLDVYIEHRLMMEQRSRDPGAVRNPQNQYPSELMRRFELYFRGPSSSKPRVIREVRADSVGKLLTVRGIVTRVSEVKPRMVVATYTCDQCGAETYQPIQSPTFMPLIMCPSQECQTNRSGGRLYLQTRGSKFVKFQEMKIQEHSDQVPVGNIPRSITVVLEGENTRIAQPGDHVSVTGIFLPVLRTGFQQMAQGLLSETYLEAHWIVKMTKSDDDVSGAGELSSEELKQIAEEDFYEKLAASIAPEIYGHEDVKKALLLLLVGGVDQSPQGMKIRGNIHICLMGDPGVAKSQLLSYIDRLAPRSQYTTGRGSSGVGLTAAVLRDSVSGELTLEGGALVLADQGVCCIDEFDKMAEADRTAIHEVMEQQTISIAKAGILTTLNARCSILAAANPAYGRYNPRRSLEQNVQLPAALLSRFDLLWLIQDRPDRDNDLRLAQHITYVHQHSRQPPAQFEPLDMKLMRRYIAMCHERQPTVPESLADYITAAYVEMRREARASKDATYTSARTLLAILRLSTALARLRMVDIVEKEDVNEAIRLMEMSKDSLLGEKGQTARTQRPADVIFATIRELVSRGRSVHFSEAEQRCISRGFTPAQFQAALDEYEELNVWQVNTSRTRITFV	not soluble
MLNADLKQQLKQLLELMEGNVEFVASLGSDDKSKELKDLLTEITDMSPRLSLSEKSLKRTPSFSVNRPGEETGVTFAGIPLGHEFNSLVLAILQVSGRAPKEKQSIIDQIKKLEGSFHFETFISLTCQKCPDVVQALNLMSVINPNITHSMIDGAVFREESENIMAVPAVFLNGEEFGNGRMTIQDILSKLGSTADASEFENKEPYDVLIVGGGPASGSAAIYTARKGLRTGIVADRIGGQVNDTAGIENFITVKETTGSEFSSNLAAHIDQYDIDAMTGIRATDIEKTDEAIKVTLENGAVLESKTVIIATGAGWRKLNIPGEEQLINKGVAFCPHCDGPLFENKDVAVIGGGNSGVEAAIDLAGIVNHVTLFEFASELKADNVLQDRLRSLSNVDIKTNAKTTEVVGEDHVTGIRYEDMNTGEEHLLNLDGIFVQIGLLPNTSWLNDAVELNERGEIVIDRNNNTNVPGIFAAGDVTDQKNKQIIISMGAGANAALNAFDYIIRN	not soluble
MSLTLGIAFVGSGFSAKFHLRGLVGVRNVEVKGVYSRNLNSSKEFAMLSEQLGLGKPKVYSDISKMLSDKEINAVWLTVPNDVHLEYTKLIAEEVSQGRSNIHGITIEKPLARNVKEAKEMIRLVEKAGLLHGYLENQIFMPSVVRAREAIWEIGSRNSGRPYLARAAEEHSGPHNSWFWRPTISGGGALIDMTCHSLEATRFLLTDPAKTKSSLKPKTVYAETKTLKWNKKEYAQYLKEKYNVDFLKEPAEDYALTIVTYEDDLGNSVLAETRTSWNYVGPGLRLSVEVLGPEYSVNINTLQSELSVFFSRNIKLPQSEAFVEKQNADQGLMPIILDEAVVYGYQGEDRHMVESFISRKMPFENWYDGLLIVQLMMHAYLSAENGRKISFDPQKVEDFIPKVARGLYSAEGHHHHHH	soluble
MEADVEQQALTLPDLAEQFAPPDIAPPLLIKLVEAIEKKGLECSTLYRTQSSSNLAELRQLLDCDTPSVDLEMIDVHVLADAFKRYLLDLPNPVIPAAVYSEMISLAPEVQSSEEYIQLLKKLIRSPSIPHQYWLTLQYLLKHFFKLSQTSSKNLLNARVLSEIFSPMLFRFSAASSDNTENLIKVIEILISTEWNERQPAPALPPKPPKPTTVAN	soluble
MAHHHHHHMLRRTARRAMGNSRFSGSKERDRIEQERRRRLLYDAAGNLQLGGLLLMMYDDFKKPAAIGLGMVAFLYGYNRLVVRLSREEEAEGLQLDAKSEAVARQTGKLKADRYLVKPNRQIDDPDFLNIPAFGGRGVSSSKLLSDDSVSGGALHSERKRS	not soluble
MSLKILFSPSESKNENCTKNPIDENSFIFKELFPYRMEALKHYGEFIKNASLKNLQELFGIKNENEIDKFKHDLKQAPTQEAIMLYTGVSYEYLNFKALDKKSQAYILENTLIFSNLFGVVRANDTLPFYKFKQGAKIGNFTIEKFYKEHFSKALDEYLENEEILDLRAGFYDKFYTPKKKFYTYKFVKNGKVISHFAKAYRGILLSISAKNQVKNNKELLANLPSNLKLKEIQIKGLKEEIALEILDEGHHHHHH	soluble
MGSDKIHHHHHHMGLLNLLSTNRNENLFLPAHGRGNSLPKNIKTLLRLRPGIWDLPELFEIGGPLISEGAIAESQKSSAYEVGVDRCWYGVNGATGLLQSSLLALAHPGQAVLMPRNIHKSCIQACLFGGLTPLLFDVPYLTDRGHASVMDRKWLQRVLKKAKEYEDDIAAVVLVNPTYQGYSADMESLIKEIHSHSLPVLVDEAHGAYLISQIRPDLPKSAISFGADLVVHSLHKSASGLVQSAVLWSQGDKVDPFKIERAIELLQTSSPSSLLLASCESSIKELLESKGIKKLRLCIEEAEMLKDFLIKNEVPLLKNSDPLKIILHTSKFGLSGIEVDKSFIRKRMIGELAEPGTLTFCLGLSSHKRLGKRFVRIWNEILKACGKQKPCFFKRPPFGIVSKPYKSYSDSWGSNFEKVNLKDAIGRISVEMVCPYPPGIPLLIPGEILDEARVDWLIEQKSFWPEQISDFVRVIS	not soluble
MAETNKGIEEEVASAFVNHYYHLFDNDRSSLSSLYNPTSLLTFEGQTIYGVDNISNKLKQLPFDQCHHLISTVDSQPSSMAGGCGGILVFVSGSIQLHGEDHPLRFSQVYLLSICNRFEGFIWLKQS	not soluble
MKIKILVDEYNTQKEQAKKVRKATSLYFRIHPSIMASKTLRVLFLGPKGTYSHQAALQQFQSTSDVEYLPAASIPQCFNQLENDTSIDYSVVPLENSTNGQVVFSYDLLRDRMIKKALSLPAPADTNRITPDIEVIAEQYVPITHCLISPIQLPNGIASLGNFEEVIIHSHPQVWGQVECYLRSMAEKFPQVTFIRLDCSSTSESVNQCIRSSTADCDNILHLAIASETAAQLHKAYIIEHSINDKLGNTTRFLVLKRRENAGDNEVEDTGLLRVNLLTFTTRQDDPGSLVDVLNILKIHSLNMCSINSRPFHLDEHDRNWRYLFFIEYYTEKNTPKNKEKFYEDISDKSKQWCLWGTFPRNERYYHK	not soluble
MLELDTRQIRMGQRAADKAEALRLLGAALVADGLAAPGYAEGLKAREAQGSTYLGQGIAIPHGTPDTRELVFSTGVRLLQFPEGVDWGDGQQVYLAIGIAAKSDEHLQLLQLLTRALGEADLGPALSAAASAEEVLGLLQGAPQELALDAQLVGLGQNAEDLDELAWLGARLLKKAGCVENGFAAVLQQTEPLPLGDGLCWLHSEQLVKRPGLAFVTPAQPLQHQGQLVTGLFCLASLGEAHQALLERLCDLLLEGRGAELVRATSSRSVLAALGGELPPDWPSARAVLANPHGLHARPAQALAQLAKGFAGEIRVRLADSEAAPVSAKSLSKLLALGARRGQTLEFSAEPAIAEDALPALLAAVREGLGEEVEALAEEALPDAVGEAEEDARPAPLRAGERLQAIAASPGIASGPAHVQVAQRFEFQPRGESPAHERERLLRAKRAVDEEIVGLVERSTVKAIREIFVTHREMLDDPELAEQVQLRLNRGESAEAAWSRVVEDSAAQQEALHDALLAERAADLRDLGRRVLARLCGVEAPREPEQPYILVMDEVGPSDVARLDAQRVAGILTARGGATSHSAIIARALGIPALVGAGAAVLGLEPGTALLLDGEHGWLQVAPSTEQLQQAAAERDARQQRQARADAQRLEPARTRDGHAVEVCANLGDTAGAARAVELGAEGVGLLRTEFVFMNNARAPDLATQEAEYRRVLDALDGRPLVARTLDVGGDKPLPYWPIPHEENPYLGLRGIRLTLQRPQILETQLRALFRAAGERPLRVMFPMVGSLDEWRQARDLALRLREEIPLADLQLGIMVEVPSAALLAPVLAREVDFFSVGTNDLTQYTLAIDRGHPSLSAQADGLHPAVLQLIDMTVRAAHAEGKWVGVCGELAADPLALPLLVGLGVDELSVSARSIALVKAGVRELQLVAARGLARKALGLASAAEVRA	not soluble
MGYIEELRKIVGTRPLILAGVGVAVIDDYGRILLQKRRDGLWGVPGGLLELGESTEEAARREVLEETGLEIGELELIDVFSGQKYFVRLPNGDQYYPVTIVYCTRDIRGGELGEDGKESLEVKFFFLHELPNELSPLFQDLVEHYFGS	soluble
MGSDKIHHHHHHMIDQLYRKAVLTVAERPQVEQLARQKMWNLAERFVAGESIESAIQAVQALERDGIAGNLDLLGEFIDSPAKCTEFADDVIKLIEAAHAAGIKPYVSIKLSSVGQGKDENGEDLGLTNARRIIAKAKEYGGFICLDMEDHTRVDVTLEQFRTLVGEFGAEHVGTVLQSYLYRSLGDRASLDDLRPNIRMVKGAYLEPATVAYPDKADVDQNYRRLVFQHLKAGNYTNVATHDERIIDDVKRFVLAHGIGKDAFEFQMLYGIRRDLQKQLAAEGYRVRVYLPYGRDWYAYFSRRIAETPRNAAFVVQGMLKG	not soluble
